Columns and labels:
[1] = molecular target: T1, recombinant human PEDF protein (pigment epithelium derived factor) (human, UniProt P36955 20-418); assay: SPR (BIAcore), PEDF immobilized on CM5 chip; PBS with 0.1% NP-40
T1 chain: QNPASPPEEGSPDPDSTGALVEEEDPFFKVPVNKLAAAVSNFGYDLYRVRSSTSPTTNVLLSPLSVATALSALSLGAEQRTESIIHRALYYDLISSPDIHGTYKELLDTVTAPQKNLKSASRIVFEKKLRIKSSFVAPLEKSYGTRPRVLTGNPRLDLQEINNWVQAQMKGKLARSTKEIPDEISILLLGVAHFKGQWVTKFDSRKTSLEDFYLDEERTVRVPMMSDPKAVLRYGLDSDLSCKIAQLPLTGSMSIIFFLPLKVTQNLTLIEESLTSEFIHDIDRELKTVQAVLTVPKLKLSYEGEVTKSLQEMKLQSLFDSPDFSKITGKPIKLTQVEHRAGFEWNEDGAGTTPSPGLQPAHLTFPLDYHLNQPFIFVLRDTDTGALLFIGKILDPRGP

[2] = molecular target: T1, recombinant human PEDF protein (pigment …); assay: as above

B1: R1N (recombinant human PEDF-R1 polypeptide with N-terminal 6xHis tag, from pEXP1-R1N) (receptor)
chain: MFPREKTWNISFAGCGFLGVYYVGVASCLREHAPFLVANATHIYGASAGALTATALVTGVCLGEAGAKFIEVSKEARKRFLGPLHPSFNLVKIIRSFLLKVLPADSHEHASGRLGISLTRVSDGENVIISHFNSKDELIQANVCSGFIPVYCGLIPPSLQGVRYVDGGISDNLPLYELKNTITVSPFSGESDICPQDSSTNIHELRVTNTSIQFNLRNLYRLSKALFPPEPLVLREMCKQGYRDGLRFLQRNGLLNRPNPLLALPPARPHGPEDKDQAVESAQAEDYSQLPGEDHILEHLPARLNEALLEACVEPTDLLTTLSNMLPVRLATAMMVPYTLPLESALSFTIRLLEWLPDVPEDIRWMKEQTGSICQYLVMRAKRKLGRHLPSRLPEQVELRRVQSLPSVPLSCAAYREALPGWMRNNLSLGDALAKWEECQRQLLLGLFCTNVAFPPEALRMRAPADPAPAPADPASPQHQLAGPAPLLSTPAPEARPVIGALGL
[1]
  Ka: 4.32e+08 M⁻¹
[2]
  Kd: 2.31 nM
